Assay [1] addresses T1, recombinant human IL-13 (human, UniProt P35225 35-146). The assay can be described thus: cell-based or functional assay.
The target of assay [2] is IL-2 (specificity ELISA of Example 6) (Homo sapiens (Human), UniProt P60568 21-153). The assay can be described thus: specificity ELISA, ligand coated. On the technique in general: ELISA stands for enzyme-linked immunosorbent assay.
Assay [3] has as its target T1, recombinant human IL-13. Put plainly: cell-based or functional assay. The source holds these as a separate data set.
The next assay has as its target T2, human TSLP (human, UniProt Q969D9 29-159).
T2 construct: also called hTSLP; h-TSLP
Put plainly: ELISA, ligand coated, IgG titrated 1 to 1000 nM.

Assay [4] deals with T3, recombinant cynomolgus monkey IL-13 (cynomolgus monkey, UniProt Q0PW92 21-132).
T3 construct: also called rc-IL-13; cIL-13
T3 sequence (Q0PW92 entry or part of it): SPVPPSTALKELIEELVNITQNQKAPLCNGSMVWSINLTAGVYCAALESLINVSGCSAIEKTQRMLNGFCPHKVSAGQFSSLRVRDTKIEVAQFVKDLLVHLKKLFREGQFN
The assay can be described thus: ELISA, ligand coated, IgG titrated 1 to 1000 nM.

The target of a further assay is T4, cynomolgus monkey TSLP (cynomolgus monkey, UniProt A0A7N9CAT7 29-159).
T4 construct: also called cTSLP; cyno-TSLP
T4 sequence (A0A7N9CAT7 entry or part of it): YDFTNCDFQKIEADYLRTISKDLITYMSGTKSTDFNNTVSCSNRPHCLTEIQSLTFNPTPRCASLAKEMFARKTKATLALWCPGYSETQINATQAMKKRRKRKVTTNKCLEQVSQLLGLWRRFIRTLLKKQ
The assay can be described thus: ELISA, ligand coated, IgG titrated 1 to 1000 nM.

Assay [5] addresses T1, recombinant human IL-13. The assay can be described thus: SPR (BIAcore T200), IgG captured, hIL-13 as analyte 20 to 0.6 nM. (In general: Surface plasmon resonance follows binding to a sensor surface in real time, without labels.)
For another assay, the target named is BSA (UniProt P02769 25-607). The assay can be described thus: specificity ELISA: plate coated with 250 ng ligand, 100 nM IgG, anti-human Fc-HRP.
BSA, sequence (P02769 25-607 limits assumed): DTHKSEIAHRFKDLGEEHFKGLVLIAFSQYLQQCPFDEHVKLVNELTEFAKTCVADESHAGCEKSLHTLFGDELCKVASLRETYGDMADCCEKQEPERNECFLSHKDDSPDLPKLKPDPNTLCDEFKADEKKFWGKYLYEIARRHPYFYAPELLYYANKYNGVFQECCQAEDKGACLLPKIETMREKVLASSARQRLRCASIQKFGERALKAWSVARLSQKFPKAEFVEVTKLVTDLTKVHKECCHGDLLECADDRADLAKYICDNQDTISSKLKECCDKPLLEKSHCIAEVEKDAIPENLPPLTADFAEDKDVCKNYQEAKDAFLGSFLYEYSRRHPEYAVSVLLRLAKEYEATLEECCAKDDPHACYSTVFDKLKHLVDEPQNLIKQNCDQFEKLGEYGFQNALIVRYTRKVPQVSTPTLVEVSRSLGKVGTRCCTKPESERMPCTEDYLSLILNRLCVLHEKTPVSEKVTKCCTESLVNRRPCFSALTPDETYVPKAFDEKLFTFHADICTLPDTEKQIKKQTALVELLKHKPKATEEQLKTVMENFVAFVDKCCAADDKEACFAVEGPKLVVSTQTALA

In general, EC50 refers to the concentration at which the effect is half-maximal. By Kd is commonly meant the equilibrium constant for the complex coming apart. The term koff denotes a measure of how fast the partners let go of each other. Usually kon stands for the second-order rate constant of association.

T1 sequence (P35225 35-146 limits assumed): as the sequence (Q0PW92 entry or part of it) above, with S1G, K10R, V42M, N67S, R83H, V100L counted along it
IL-2 (specificity ELISA of Example 6), sequence (P60568 21-153 limits assumed): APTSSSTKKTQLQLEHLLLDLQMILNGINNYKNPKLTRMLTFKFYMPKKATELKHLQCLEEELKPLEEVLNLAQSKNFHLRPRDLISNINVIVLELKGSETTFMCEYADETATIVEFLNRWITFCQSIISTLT

B1: BDG33.025 (antibody, human IgG1, V domains shown)
VH: QMQLVESGGGVVQPGRSLRLSCAASGFTFRTYGMHWVRQAPGKGLEWVADIWYDGSNKHYADSVKGRFTITRDNSKNTLNLQMNSLRAEDTAVYYCARAPQWYLVAEPFDLWGQGTMVTVSS
VL: SYVLTQPPSVSVAPGQTARITCGGNLIGSKLVHWYQQKPGQAPVLVVYDDSDRPSLIPERFSGSNSGNTATLTISRVEAGDEADYYCQVWDSSSDGVVFGGGTKLTVL
notes: IgG (human IgG1 format, symmetrical IgG); also called BGD33.025; BDG33.0025
In the case of B1, the “IC50, inhibition of IL-13 signaling cascade in HEK-Blue IL-4/IL-13 cells” value in the assay with recombinant human IL-13 [1] came to 25 nM. For the same molecule, the binding result in assay [2] is recorded as “no binding (tested: 100 nM IgG)”; with BSA it was “no binding (tested: 100 nM IgG (not on the sheet))”. In addition, the “IC50 (read off the curve); HEK-Blue IL-4/IL-13 STAT6-SEAP reporter with 0.4 nM rh-IL-13, OD 620” value in the assay with recombinant human IL-13 [3] is ~20 nM. The EC50 with human TSLP was found to be 12.8 nM; in assay [4] it was 1.5 nM; with cynomolgus monkey TSLP, 148 nM. Moreover, the Kd with recombinant human IL-13 [5] was found to be 0.903 nM. Also, the koff with recombinant human IL-13 [5] was found to be 0.0036 s⁻¹. Also, in the assay with recombinant human IL-13 [5], the kon was 4.07e+06 M⁻¹ s⁻¹.

These data come from patent US20240101675A1 (BIOLOJIC DESIGN, published 2024).
